Laboratory results from patent US20130078247A1 (Boehringer Ingelheim, published 2013).
Changes are numbered by the printed parent chain.

B1: DLLBII102G04 (VHH)
VHH: EVQLMESGGGLVQPGGSLRLSCAASGFTFSSYAMSWVRQAPGKGLEWVSRITSGGRTTYRDSVKGRFTISRDNSKNTLYLQMNSLKPEDTALYYCAKARGDIDVYTLSDSRGQGTQVTVSS
notes: also called DLLBII102G4; not shown: C-terminal c-myc and His6 tags
B2: DLLBII112A04 (VHH)
VHH: EVQLVESGGGLVQAGGSLRLSCAAFGRTPYGMGWFRQAPGKEREFVAAITSDGSTNYADSVKGRFTISRDNAKNAVSLQMNSLKPEDTAVYYCTAPYYSDFEGTTTEYDYWGQGTQVTVSS
notes: also called DLLBII112A4; not shown: C-terminal c-myc and His6 tags
B3: DLLBII112A03 (VHH)
VHH: EVQLVESGGGLVQPGGSLRLSCAASGIRFSINGMGWYRQAPGKQREAVATITRGGIRDYTDSVKGRFTISRDIARNTVYLQMNNLKPEDSAVYYCNIDIYWGRGTQVTVSS
notes: also called DLLBII112A3; not shown: C-terminal c-myc and His6 tags
B4: DLLBII95F02 (VHH)
VHH: EVQLVESGGGSVQAGGSLRLSCAASGRTFSSYAMGWFRQAPGKEREFVAAINWSGGYTYYADSVRGRFTISRDNAKNTVYLQMNSLKPEDTAVYYCAAPAPGSSGYEYDYWGQGTQVTVSS
notes: also called DLLBII95F2; not shown: C-terminal c-myc and His6 tags
B5: DLLBII83G01 (VHH)
VHH: EVQLVESGGGLVQAGGSLRLSCAASGRTFSNYIMGWFRQAPGKEREFVAGISRYADYTGYADSVKGRFTISRDNVKNTVYLRMNSLKPDDTAVYYCAANEGYCSGYGCYEDSGQYDYWGQGTQVTVSS
notes: also called DLLBII83G1; not shown: C-terminal c-myc and His6 tags
B6: DLLBII80E08 (VHH)
VHH: EVQLVESGGGLVQAGGSLTLSCAASGGTFTTYAMGWFRQAPGKEREFVAAVSRFGVSWDYADSVKGRFTISRDNTANTLKLRMNSLKADDTAVYYCAAGGRSFLPFVPAYWGQGTQVTVSS
notes: also called DLLBII80E8; not shown: C-terminal c-myc and His6 tags
B7: DLLBII102F08 (VHH)
VHH: EVQLVESGGGLVQTGDSLRLSCAASGSTFSNYRMGWFRQGPGKEREFVAAIGRNGQNTYYTDSVKGRFTVTRDNAKNMVYLQMNSLKPEDSAVYTCAASLRGWDTTRIDYEYWGQGTQVTVSS
notes: also called DLLBII102F8; not shown: C-terminal c-myc and His6 tags
B8: DLLBII58A11 (VHH)
VHH: EVQLVESGGGLVQAGGSLRLSCTTSERTVSRYSMGWFRQAPGKEREAVATISWSGDSTYYADSVKGRFTISRDNTKNTLYLQIDSLKPEDTAVYYCVAKPNLKYGSYWPPRGYDYWGQGTQVTVSS
notes: not shown: C-terminal c-myc and His6 tags
B9: DLLBII107C03 (VHH)
VHH: EVQLVESGGGLVQPGGSLRLSCEVSGSIGSVSDMRWYRQAPGLQYELVARITSGSITDYSDSVKGRFTISRDNAKNTVYLQMNSLKPEDTAVYYCNADVQHSAWLKPLTYWGQGTQVTVSS
notes: also called DLLBII107C3; not shown: C-terminal c-myc and His6 tags
B10: DLLBII101F01 (VHH)
VHH: EVQLVESGGGLVQAGGSLRLSCAASGRTFSNYAMGWFRQAPGKEREFVAAISWSGGDTYYADSVKGRFTISRDNAKNTVCLQMNSLKPEDTAVYYCAASFQSGAAPGANFYDYWGQGTQVTVSS
notes: also called DLLBII101F1; not shown: C-terminal c-myc and His6 tags
B11: DLLBII101H09 (VHH)
VHH: EVQLVESGGGLVQPGGSLRLSCAASGFTLGYYTIVWFRQAPGKERKGVSCISSRDGSRYYADSVKGRFTISRDNAKNTVYLRMNSLKPEDTAVYYCAAGPDCSSYDYWGQGTQVTVSS
notes: also called DLLBII101H9; DLL1BII101H09; not shown: C-terminal c-myc and His6 tags
B12: DLLBII61F05 (VHH)
VHH: EVQLVESGGGLVQPGGSLRLSCTASGFTFSSYAMSWVRQAPGKGLEWVSFINKDGSDTGYADSVKGRFTISRDNAKNTMYLQMNSLKPEDTAVYFCETRTSRSPRPRGQGTQVTVSS
notes: also called DLLBII61F5; not shown: C-terminal c-myc and His6 tags
B13: DLLBII47D01 (VHH)
VHH: EVQLVESGGGLVQPGGSLRLSCAASGFTFDDYAIGWFRQAPGKEREGVSCISSSGSTYYADSVKGRFTISRDNAKNTVYLQMNSLKPEDTAVYYCAIAGASSWCFPPGYWGQGTQVTVSS
notes: also called DLLBII47D1; not shown: C-terminal c-myc and His6 tags
B14: DLLBII61F07 (VHH)
VHH: EVQLVESGGGLVQAGGSLRLSCAASGRTFSRYAMGWFRQAPGKEREFVAAINWSGGSTYYADSVKGRFTISRDNAKNTVYLQMNSLKPEDTAVYDCAASNYYSVYDDRPVMDYWGQGTQVTVSS
notes: also called DLLBII61F7; not shown: C-terminal c-myc and His6 tags
B15: DLLBII104A03 (VHH)
VHH: EVQLVESGGGLVQAGGSLRLSCAASGDIPRIAAMGWYRQAPGKQRELVATVSNAATTRYADSAKGRFTISRDNAKTVSLQMDNLKPEDTGVYYCYSLATTVTPSWVNYWGQGTQVTVSS
notes: also called DLLBII104A3; not shown: C-terminal c-myc and His6 tags
B16: DLLBII104C04 (VHH)
VHH: EVQLVESGGGLVQAGGSLRLSCAAAGSTFSSYVMGWYRQAPGKQRELVAHISTRGITYYADSVKGRFTISRDNAKNTMYLQMNSLKPEDTAVYYCNTRRNFLSNYWGQGTQVTVSS
notes: also called DLLBII104C4; not shown: C-terminal c-myc and His6 tags
B17: DLLBII112E07 (VHH)
VHH: EVQLVESGGGLVQAGGSLRLSCAASGRTVRSYATGWFRQAPGKEREFVAALRWSIGSIASVYYDDSVKGRFTISGDNAENTVYLQMNALKPEDTAIYYCASTTRGRYSALSASAYDYWGQGTQVTVSS
notes: also called DLLBII112E7; not shown: C-terminal c-myc and His6 tags
B18: DLLBII104B05 (VHH)
VHH: EVQLVESGGGSVQAGGSLRLSCAASGSISRIDVMAWYRQAPGKERELVASISSGGSTNYADSVKGRFTISREYFKNMMYLQMNSLKFEDTAVYYCNADSRRGGVGNFFRSWGQGTQVTVSS
notes: also called DLLBII104B5; DLLBII1040B05; not shown: C-terminal c-myc and His6 tags
B19: DLLBII101H05 (VHH)
VHH: EVQLVESGGGSAQAGGSLRLSCAASGRTSSTYAMGWFRQAPGKEHEFVSAIGRGTGATSYGDSVKGRFTISRDNAKNTVYLQMNSLQLEDTGDYYCVAGRGFYHDYSSYEYRGQGTQVTVSS
notes: also called DLLBII101H5; not shown: C-terminal c-myc and His6 tags
B20: DLLBII129A03 (VHH)
VHH: EVQLVESGGGLVQAGGSLRLSCAASGRTFSSYAMAWFRQAPGKEREYVAAIRWSGGTAYYADSVQGRFTISRDNAKNTVYLQMNSLRPEDTAVYYCANRAPDTRLRPYLYDYWGQGTQVTVSS
notes: not shown: C-terminal c-myc tag and (His)6 tag
B21: DLLBII129E03 (VHH)
VHH: B20 VHH with E44D, R87K, R106A
B22: DLLBII129H04 (VHH)
VHH: B20 VHH with G8R, R87K, R106E, Y112H
B23: DLLBII129G10 (VHH)
VHH: B20 VHH with F37Y, G66S, R87K, R106E, L109E, Y112H
B24: DLLBII129H05 (VHH)
VHH: B20 VHH with F37Y, Q39L, R87K, R106G
B25: DLLBII129D01 (VHH)
VHH: B20 VHH with G66S, S71T, R87K, R106E, Y112H
B26: DLLBII129G09 (VHH)
VHH: B20 VHH with F37Y, G56E, R87K, R106E, Y112H
B27: DLLBII129H02 (VHH)
VHH: B20 VHH with F37Y, R87K, L109E
B28: DLLBII129B02 (VHH)
VHH: B20 VHH with R19S, F37Y, R87K, R106E, L109E, Y112H
B29: DLLBII129E07 (VHH)
VHH: B20 VHH with A23S, F37Y, A61P, R87K, R106A, L109E, Y112H

biological target: T1, human DLL4, full length, overexpressed on CHO or HEK293 cells (human, UniProt Q9NR61 27-685); experiment: periplasmic extract; FMAT, Notch1/Fc on CHO-hDLL4
T1 construct: also called CHO-hDLL4; CHO-hDII4
Source text: (§1) All calculations are based on the FL1_total signal which comprises the average of the fluorescence per well times the number of counts per well.

Binder | % inhibition [%]
B1 | 86
B2 | 75
B3 | 72
B4 | 81
B5 | 87
B6 | 71
B7 | 85
B8 | 95
B9 | 75
B10 | 85
B11 | 87
B12 | 74
B13 | 87
B14 | 79
B15 | 86
B16 | 87
B17 | 80
B18 | 86

biological target: T2, mouse DLL4, full length, overexpressed on CHO or HEK293 cells (mouse, UniProt Q9JI71 27-686); experiment: periplasmic extract; FMAT, Notch1/Fc on CHO-mDLL4
T2 construct: whole, on cells; also called CHO-mDLL4; CHO-mDII4
T2 sequence (Q9JI71 27-686): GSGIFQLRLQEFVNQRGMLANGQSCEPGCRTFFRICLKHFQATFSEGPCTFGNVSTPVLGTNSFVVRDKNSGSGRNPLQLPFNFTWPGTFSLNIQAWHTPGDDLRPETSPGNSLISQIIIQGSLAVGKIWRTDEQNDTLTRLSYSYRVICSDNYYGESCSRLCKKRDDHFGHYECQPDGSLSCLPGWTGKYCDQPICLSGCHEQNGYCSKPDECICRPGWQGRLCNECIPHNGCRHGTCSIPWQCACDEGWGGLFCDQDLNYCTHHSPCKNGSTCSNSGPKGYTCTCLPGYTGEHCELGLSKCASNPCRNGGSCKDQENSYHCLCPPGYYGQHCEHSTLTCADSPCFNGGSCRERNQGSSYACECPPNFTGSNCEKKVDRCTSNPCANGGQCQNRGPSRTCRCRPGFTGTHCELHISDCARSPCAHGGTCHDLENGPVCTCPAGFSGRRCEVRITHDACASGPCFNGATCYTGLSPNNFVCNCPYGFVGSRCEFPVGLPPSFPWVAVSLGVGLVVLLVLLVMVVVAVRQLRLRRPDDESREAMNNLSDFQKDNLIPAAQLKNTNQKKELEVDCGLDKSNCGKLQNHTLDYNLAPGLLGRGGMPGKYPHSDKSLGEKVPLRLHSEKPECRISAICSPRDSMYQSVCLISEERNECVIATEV
Source text: as §1

Binder | % inhibition [%]
B1 | 82
B2 | 90
B3 | 97
B4 | 71
B5 | 93
B6 | 82
B7 | 75
B8 | 73
B9 | 80
B10 | 78
B11 | 75
B12 | 76
B14 | 77
B15 | 83
B16 | 83
B19 | 83
B17 | 85
B18 | 78

biological target: T3, recombinant human DLL4 (human, UniProt Q9NR61 25-522); experiment: ProteOn off-rate screen, periplasmic extract, hDLL4 on chip
T3 construct: R&D Systems C-terminally His-tagged extracellular domain; also called rhDLL4; hDLL4; not shown: C-terminal His tag
Protocol: (§2) In a first cycle, amino acid substitutions are introduced randomly in both framework (FW) and complementary determining regions (CDR) using the error-prone PCR method. […] After a polish step, PCR products are inserted via unique restriction sites into a vector designed to facilitate phage display of the VHH library. […] No selections on murine DLL4 are included as (conservation of) cross-reactivity is assessed at the screening level. Individual mutants are produced as recombinant protein using an expression vector derived from pUC119, which contains the LacZ promoter, a resistance gene for ampicillin, a multiple cloning site and an ompA leader sequence (pAX50). E. coli TG1 cells are transformed with the expression vector library and plated on agar plates (LB+Amp+2% glucose). Single colonies are picked from the agar plates and grown in 1 mL 96-deep-well plates. VHH expression is induced by adding IPTG (1 mM). Periplasmic extracts (in a volume of ˜80 uL) are prepared according to standard methods and screened for binding to recombinant human and mouse DII4 in a ProteOn (BioRad, Hercules, Calif., USA) off-rate assay. […] Periplasmic extract of affinity matured clones is diluted 1/10 and injected across the “analyte channels” A1-A6. An average off-rate is calculated of the wild type clones present in the plate and served as a reference to calculate off-rate improvements.

Binder | fold (off-rate improvement over DLLBII101G08) [fold]
B20 | 19
B21 | 20
B22 | 33
B23 | 31
B24 | 24
B25 | 26
B26 | 26
B27 | 23
B28 | 30
B29 | 21

biological target: T4, recombinant mouse DLL4 (mouse, UniProt Q9JI71 27-532); experiment: ProteOn off-rate screen, periplasmic extract, mDLL4 on chip
T4 construct: extracellular domain; also called rmDLL4; mDLL4; not shown: C-terminal His tag
T4 sequence (Q9JI71 27-532): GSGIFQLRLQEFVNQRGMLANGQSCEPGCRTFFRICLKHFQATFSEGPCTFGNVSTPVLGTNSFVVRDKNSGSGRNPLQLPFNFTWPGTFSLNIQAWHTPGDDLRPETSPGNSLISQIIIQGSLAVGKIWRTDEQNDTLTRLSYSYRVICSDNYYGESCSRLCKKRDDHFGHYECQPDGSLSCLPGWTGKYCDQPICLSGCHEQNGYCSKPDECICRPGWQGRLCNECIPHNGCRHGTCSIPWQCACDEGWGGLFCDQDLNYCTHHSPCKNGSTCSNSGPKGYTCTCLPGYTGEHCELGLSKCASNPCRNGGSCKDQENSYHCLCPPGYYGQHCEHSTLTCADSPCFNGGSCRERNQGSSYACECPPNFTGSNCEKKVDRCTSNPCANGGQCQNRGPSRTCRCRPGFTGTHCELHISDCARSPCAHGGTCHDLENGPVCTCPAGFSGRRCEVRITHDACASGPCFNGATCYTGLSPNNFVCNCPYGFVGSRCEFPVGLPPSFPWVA
Protocol: as §2

Binder | fold (off-rate improvement over DLLBII101G08) [fold]
B20 | 18
B21 | 18
B22 | 27
B23 | 26
B24 | 19
B25 | 26
B26 | 20
B27 | 19
B28 | 26
B29 | 24
